Seven molecules from US6323395A, “Nucleotide sequences of maize and soybean β-Ketoacyl-Acyl Carrier Protein Synthase II and their use in the regulation of fatty acid content of oil” (Dow AgroSciences LLC, priority 1998, dated 2001) can be followed below.

Data set [1] addresses C16:0-ACP (palmitoyl-acyl carrier protein) made from bought ACP (Escherichia coli (strain K12)) (UniProt P0A6A8).
In data set [2] the test system is soybean β-Ketoacyl-Acyl Carrier Protein Synthase II (KAS II), purified from seed. The data set can be described thus: KAS II activity assay, Km from double reciprocal plots. It is filed as biochemical. The following applies: cerulenin-Sepharose fraction, substrate not named, condensing activity towards C16:0-ACP. The protocol: (§1) Malonyl CoA-ACP transacylase, hereafter MTA, was purified from E. coli as described by Alberts et al. (1969) Methods in Enzymology, 14:50-53. Transacylase reactions were performed in 100 μL of reaction mixture [100 mM KH2 PO4, pH 6.5, 100 μM ACP, 100 μM malonyl CoA, 10 nCi [2-^4 C] malonyl CoA (43.1 Ci/mol), and 2 mM dithiothreitol (DTT). ACP was incubated with an equal volume of 20 mM DTT for 15 min before being added to the reaction mixture. Reactions were started by adding 10 μL of either enzyme alone or enzyme that had been incubated for 15 min with an inhibitor and allowed to proceed for 5 min at 23° C. Reactions, which were terminated by adding 400 μL of ice cold 5% (v/v) perchloric acid, were then placed on ice for 20 min before being centrifuged for 5 min at 14,000×g. Pellets were washed 3× with 5% perchloric acid before being resuspended in 500 µL KH2 PO4 buffer and counted using scintillation. KAS II activity was measured by modifying the method of Garwin et al. (1980) J. Biological Chem. 255:11949-11956. […] The toluene layer (300 μL) was added to 5 mL Aquasol (NEN, Boston, Mass.) and incorporated [2-^4 ] malonyl CoA was determined by scintillation counting. […]

Data set [3] concerns maize β-Ketoacyl-Acyl Carrier Protein Synthase II (KAS II), purified from seed. Described as above. Format: biochemical. The following applies: cerulenin-Sepharose fraction, substrate not named, condensing activity towards C16:0-ACP. The procedure: as §1
For data set [4], the system named is KAS II (soybean and maize KAS II expressed in E. coli). Kind of data set: Synthase assay with cerulenin, condensation of [2-14C]malonyl-CoA with acyl-ACP. It is filed as biochemical. The conditions noted are these: cerulenin 50 μM. The procedure:
Malonyl CoA-ACP transacylase, hereafter MTA, was purified from E. coli as described by Alberts et al. (1969) Methods in Enzymology, 14:50-53. Transacylase reactions were performed in 100 μL of reaction mixture [100 mM KH2 PO4, pH 6.5, 100 μM ACP, 100 μM malonyl CoA, 10 nCi [2-^4 C] malonyl CoA (43.1 Ci/mol), and 2 mM dithiothreitol (DTT). ACP was incubated with an equal volume of 20 mM DTT for 15 min before being added to the reaction mixture. Reactions were started by adding 10 μL of either enzyme alone or enzyme that had been incubated for 15 min with an inhibitor and allowed to proceed for 5 min at 23° C. […] Pellets were washed 3× with 5% perchloric acid before being resuspended in 500 µL KH2 PO4 buffer and counted using scintillation. KAS II activity was measured by modifying the method of Garwin et al. (1980) J. Biological Chem. 255:11949-11956. […] The toluene layer (300 μL) was added to 5 mL Aquasol (NEN, Boston, Mass.) and incorporated [2-^4 ] malonyl CoA was determined by scintillation counting.
For enzymatic analysis of E coli expressed soybean and maize KAS II, substrates were made as follows: ACP (Sigma Chemical Co.) was further purified by three cycles of precipitation at pH 4.0 using 10% (v/v) acetic acid followed by resolubilization in 50 mM Tris-HCl, pH 8.0. […] Incorporated malonyl-CoA was extracted into toluene prior to quantitating by liquid scintillation counting. […]

In a further data set the test system is KAS I. Described as above. Format: biochemical. The following applies: cerulenin at concentrations of 5 μM or greater.
In data set [5] the target is C16:0-ACP (palmitoyl-acyl carrier protein) made from bought ACP (Escherichia coli (strain K12)) (UniProt P0A6A8). This is another data set of the same source.
Target sequence in this assay (P0A6A8 2-78 limits assumed): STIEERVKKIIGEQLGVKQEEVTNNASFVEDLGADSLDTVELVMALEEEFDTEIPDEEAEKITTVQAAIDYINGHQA
Data set [6] has as its target C10:0-ACP (decanoic acid acyl-acyl carrier protein) made from bought ACP (Escherichia coli (strain K12)) (UniProt P0A6A8).
Data set [7] concerns the molecule itself. Kind of data set: gel filtration on Superdex 200: native molecular weight 82,000±5,000 against a subunit size of 46 kDa by SDS-PAGE. The protocol: The molecular mass of native KAS II was determined by gel filtration using a Superdex 200 column (Pharmacia LKB Biotechnology, Inc.) equilibrated in 25 mM KH_2PO_4 (pH7.0). The column was calibrated using protein standards (BioRAD, Hercules, Calif.), which included blue dextran, thyroglobin (M_r, 670,000), bovine gamma globulin (Mr_r, 158,000), chicken ovalbumin (M_r, 44,000), equine myoglobin (M_r, 17,000), vitamin B-12 (M_r, 1,350).

Data set [8] concerns the target C16:0-ACP (palmitoyl-acyl carrier protein) made from bought ACP (Escherichia coli (strain K12)) (UniProt P0A6A8). This is another data set of the same source.
Target sequence in this assay (P0A6A8 2-78 limits assumed): as above
The target in data set [9] is C10:0-ACP (decanoic acid acyl-acyl carrier protein) made from bought ACP (Escherichia coli (strain K12)) (UniProt P0A6A8). The source holds these as a separate data set.

Like-named read-outs stand apart in the source and are kept apart here.

C10:0-ACP (decanoic acid acyl-acyl carrier protein) made from bought ACP (Escherichia coli (strain K12)), sequence (P0A6A8 2-78 limits assumed): as above

For the molecule “soybean β-Ketoacyl-Acyl Carrier Protein Synthase II purified from soybean seed (enzyme)”, in data set [1], the Km was found to be 18 µM.

Consider palmitoyl-ACP [C16:0-ACP], for which the Km in data set [2] was 18 µM; in data set [3], 14.1 µM.

Turning to `C/C=C/C/C=C/CCC(=O)[C@H]1O[C@H]1C(N)=O` [cerulenin], the “inhibition of KAS II” value in [4] is “about 50%”. Also, the “inhibition of KAS I activity” value in the data set on KAS I was “completely inhibits”.

B1: second soybean KAS II expressed in E. coli from pDAB394 (enzyme)
chain: MAVALQPTQEITTIKKPPTKQRRVVVTGLGVVTPLGHEPDIFYNNLLDGASGISEIETFDCAEYPTRIAGEIKSFSTDGWVAPKLSKRMDKFMLYMLTAGKKALVDGGITDDVMDELNKEKCGVLIGSAMGGMKVFNDAIEALRISYKKMKPFCVPFATTNMGSAMLAMDLGWMGPNYSISTACATSNFCILNAANHIIRGEADVMLCGGSDAAIIPIGLGGFVACRALSQRNTDPTKASRPWDINRDGFVMGEGAGVLLLEELEHAKERGATIYAEFLGGSFTCDAYHVTEPRPDGAGVILCIEKALAQSGVSKEDVNYINAHATSTPAGDLKEYQALMHCFGQNPELRVNSTKSMIGHLLGAAGGVAAVATIQAIRTGWVHPNINLENPDNGVDAKVLVGSKKERLDVKAALSNSFGFGGHNSSIIFAPY
With B1, in data set [5], the synthase activity: condensation of [2-14C]malonyl-CoA with C16:0-ACP to C18:0-ACP (counts per minute per minute) stood at 2160. The synthase activity: condensation of [2-14C]malonyl-CoA with C10:0-ACP to C12:0-ACP (counts per minute per minute) in data set [6] was 890.

B2: first soybean KAS II expressed in E. coli from pDAB393 (enzyme)
chain: MAVALQPTQEVTTIKKPPTKQRRVVVTGLGVVTPLGHEPDIFYNNLLDGVSGISEIETFDCAEYPTRIAGEIKSFSTDGWVAPKLSKRMDKFMLYMLTAGKKALVDGGITDDVMDELNKDKCGVLIGSAMGGMKVFNDAIEALRISYKKMNPFCVPFATTNMGSAMLAMDLGWMGPNYSISTACATSNFCILNAANHIIRGEADVMLCGGSDAAIIPIGLGGFVACRALSQRNTDPTKASRPWDINRDGFVMGEGAGVLLLEELEHAKKRGATIYAEFLGGSFTCDAYHVTEPRPDGAGVILCIEKALAQSGVSKEDVNYINAHATSTPAGDLKEYQALMHCFGQNPKLRVNSTKSMIGHLLGAAGAVEAVATIQAIRTGWVHPNINLEKPDNGVDAKVLVGSKKERLDVKAALSNSFGFGGHNSSIIFAPYK
Turning to B2, the binding result in [7] is on record as “binds”. Further, the synthase activity: condensation of [2-14C]malonyl-CoA with C16:0-ACP to C18:0-ACP (counts per minute per minute) in data set [8] is 1930. In [9], the synthase activity: condensation of [2-14C]malonyl-CoA with C10:0-ACP to C12:0-ACP (counts per minute per minute) stood at 207.

B3: maize β-Ketoacyl-Acyl Carrier Protein Synthase II purified from maize seed (enzyme)
chain: MAVALQAERSVIEKKKPDIKQRRVVVTGMGVVTPLGHDPDVFYNNLLDGVSGISEIERFDCSNFPTRIAGEIKSFSTDGWVAPKLAKRMDKFMLYLITAGKKALENGGLTEELRNELDKTRCGVLIGSAMGGMKVFNDAIEALRVSYKKMNPFCVPFATTNMGSAILAMDLGWMGPNYSISTACATSNFCILNAANHIRRGEADVMLCGGSDAPLIPIGLGGFVACRALSQRNSDPTKASRPWDMGRDGFVMGEGAGVLVLEELEHAKERGATIYAEFLGGSFTCDAYHMTEPHPEGRGIALCIEKALADAGVAREEINYVNAHATSTQAGDLKEYEAIVRCFRQNPQLRVNSTKSMTGHLIGAAGGIEAVASIQAIRTGWVHPNLNLENPEDTVDVGVLVGSQKERCEVKVALSNSFGFGGHNSSILFAPFK
As for B3, the Km in data set [1] stood at 14.1 µM.

B4: maize KAS II expressed in E. coli from pDAB388 (enzyme)
chain: B3 chain
For the molecule B4, in data set [5], the synthase activity: condensation of [2-14C]malonyl-CoA with C16:0-ACP to C18:0-ACP (counts per minute per minute) worked out at 909. The molecule also displayed a synthase activity: condensation of [2-14C]malonyl-CoA with C10:0-ACP to C12:0-ACP (counts per minute per minute) in data set [6] of 734.
